Columns and labels:
[1] = biological target: glucocorticoid receptor, expressed from pNGV1.GR in U-2 OS cells (human) (UniProt P04150); experiment: cell-based or functional assay
[2] = biological target: human estrogen receptor β, expressed from pNGV1.ERβ in U-2 OS cells (human) (UniProt Q92731); experiment: cell-based or functional assay
[3] = biological target: progesterone receptor, expressed from pKCRE.PR in U-2 OS cells; experiment: cell-based or functional assay
[4] = biological target: progesterone receptor (PR) (Homo sapiens, UniProt P06401); experiment: Transient transfection of U-2 OS cells with PR and pMMTV-LUC reporter, with or without COASTER; format: cell-based; settings: 10^−8 M ligand, ± SD triplicate
Sequence of progesterone receptor (PR) (P06401 whole entry, species assumed, the tested form may be a part): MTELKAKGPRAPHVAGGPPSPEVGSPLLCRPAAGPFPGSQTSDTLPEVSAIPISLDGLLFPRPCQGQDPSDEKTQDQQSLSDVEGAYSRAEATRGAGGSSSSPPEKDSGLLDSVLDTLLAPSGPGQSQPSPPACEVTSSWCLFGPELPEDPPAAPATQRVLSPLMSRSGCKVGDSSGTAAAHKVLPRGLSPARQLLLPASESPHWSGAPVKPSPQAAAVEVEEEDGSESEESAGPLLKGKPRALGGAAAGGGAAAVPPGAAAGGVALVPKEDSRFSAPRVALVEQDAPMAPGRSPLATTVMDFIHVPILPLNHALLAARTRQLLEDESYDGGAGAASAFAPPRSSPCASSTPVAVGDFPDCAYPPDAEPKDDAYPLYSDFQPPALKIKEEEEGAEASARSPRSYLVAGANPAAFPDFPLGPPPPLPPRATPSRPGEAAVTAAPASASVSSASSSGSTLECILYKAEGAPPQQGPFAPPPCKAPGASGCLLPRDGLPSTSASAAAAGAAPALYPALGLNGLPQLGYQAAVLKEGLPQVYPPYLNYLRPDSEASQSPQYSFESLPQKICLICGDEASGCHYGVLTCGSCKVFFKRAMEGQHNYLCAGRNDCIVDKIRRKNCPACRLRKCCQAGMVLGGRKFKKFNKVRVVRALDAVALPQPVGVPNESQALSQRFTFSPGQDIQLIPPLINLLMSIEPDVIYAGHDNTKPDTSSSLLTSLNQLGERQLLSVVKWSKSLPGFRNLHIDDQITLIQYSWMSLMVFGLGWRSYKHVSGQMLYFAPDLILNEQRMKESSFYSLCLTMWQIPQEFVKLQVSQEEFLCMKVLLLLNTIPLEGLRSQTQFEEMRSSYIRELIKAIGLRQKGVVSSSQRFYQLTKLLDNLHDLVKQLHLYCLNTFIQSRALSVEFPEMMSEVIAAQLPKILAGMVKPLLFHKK
Description: (§1) To test the functional role of COASTER in a mammalian setting, the full length COASTER (amino acids 1-1013) cDNA was cloned in a mammalian cell expression vector. The functional role of COASTER was analyzed by cotransfection of U-2 OS cells with the COASTER expression plasmid in combination with a steroid receptor expressing plasmid, and a plasmid containing a luciferase reporter gene under control of a hormone responsive element. Following transfection, cells were stimulated with the appropriate hormone for the receptor under study.
(§2) U-2 OS cells were transiently transfected with pNGV1.ERβ and p4ERE-TATA-LUC (1), pNGV1.ERα and p4ERE-TATA-LUC (2), pKCRE.PR and pMMTV-LUC (3) or pNGV1.GR and pMMTV-LUC (4). Where indicated, COASTER expression construct pCDNA3.1HISC.COASTER was added to the transfection mixture. Following transfection, cell were incubated with the hormones indicated in the top row. […] Org 2058=16α-ethyl-21-hydroxy-19-norpregn-4-ene-3,20-dione.
(§3) Initially, a plasmid encoding a truncated form of COASTER (pACT2.COASTERΔ, amino acids 1-234) was isolated in the yeast two hybrid screen. […] The 5′ end of the COASTER (amino acid 1 to 332) was amplified by PCR on human-testis Marathon Ready cDNA (Clontech, Palo Alto, USA, cat.#7414-1) using primers […] […]

ERβ = biological target: T1, ERβ (Homo sapiens, UniProt Q92731); experiment: Transient transfection of U-2 OS cells with ERβ and ERE luciferase reporter, with or without COASTER; format: cell-based; settings: 10^−8 M ligand, ± SD triplicate
T1 construct: expressed in transfected cells; host or cells: U-2 OS
T1 sequence (Q92731 whole entry): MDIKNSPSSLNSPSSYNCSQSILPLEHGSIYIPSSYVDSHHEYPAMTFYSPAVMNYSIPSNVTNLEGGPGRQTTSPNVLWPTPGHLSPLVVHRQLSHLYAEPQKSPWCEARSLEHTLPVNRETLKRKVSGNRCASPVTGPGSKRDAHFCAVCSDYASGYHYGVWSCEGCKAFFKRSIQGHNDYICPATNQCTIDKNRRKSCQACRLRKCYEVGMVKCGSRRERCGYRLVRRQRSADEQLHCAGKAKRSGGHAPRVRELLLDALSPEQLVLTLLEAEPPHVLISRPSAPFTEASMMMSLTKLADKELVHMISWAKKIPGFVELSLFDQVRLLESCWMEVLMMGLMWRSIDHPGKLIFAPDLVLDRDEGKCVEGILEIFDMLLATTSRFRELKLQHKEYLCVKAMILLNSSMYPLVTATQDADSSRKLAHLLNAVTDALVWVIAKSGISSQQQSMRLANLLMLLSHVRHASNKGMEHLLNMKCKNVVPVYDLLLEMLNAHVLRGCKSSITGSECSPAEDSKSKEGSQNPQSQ
Description: as §1, §2, §3

ERβ and COASTER = ERβ and COASTER (Homo sapiens, UniProt Q92731); experiment: Yeast two-hybrid assay, β-galactosidase reporter, ERβ with COASTER amino acids 1-234; format: cell-based; settings: yeast AH109, pGBT9.ERβ + pACT2.COASTERΔ; 10^−8 M 17β-estradiol, 10^−5 M raloxifen
Sequence of ERβ and COASTER (Q92731 whole entry, the tested form may be a part): as the sequence (Q92731 whole entry) above

Sequence of human estrogen receptor β, expressed from pNGV1.ERβ in U-2 OS cells (human) (Q92731 whole entry): as above
Sequence of glucocorticoid receptor, expressed from pNGV1.GR in U-2 OS cells (human) (P04150 whole entry): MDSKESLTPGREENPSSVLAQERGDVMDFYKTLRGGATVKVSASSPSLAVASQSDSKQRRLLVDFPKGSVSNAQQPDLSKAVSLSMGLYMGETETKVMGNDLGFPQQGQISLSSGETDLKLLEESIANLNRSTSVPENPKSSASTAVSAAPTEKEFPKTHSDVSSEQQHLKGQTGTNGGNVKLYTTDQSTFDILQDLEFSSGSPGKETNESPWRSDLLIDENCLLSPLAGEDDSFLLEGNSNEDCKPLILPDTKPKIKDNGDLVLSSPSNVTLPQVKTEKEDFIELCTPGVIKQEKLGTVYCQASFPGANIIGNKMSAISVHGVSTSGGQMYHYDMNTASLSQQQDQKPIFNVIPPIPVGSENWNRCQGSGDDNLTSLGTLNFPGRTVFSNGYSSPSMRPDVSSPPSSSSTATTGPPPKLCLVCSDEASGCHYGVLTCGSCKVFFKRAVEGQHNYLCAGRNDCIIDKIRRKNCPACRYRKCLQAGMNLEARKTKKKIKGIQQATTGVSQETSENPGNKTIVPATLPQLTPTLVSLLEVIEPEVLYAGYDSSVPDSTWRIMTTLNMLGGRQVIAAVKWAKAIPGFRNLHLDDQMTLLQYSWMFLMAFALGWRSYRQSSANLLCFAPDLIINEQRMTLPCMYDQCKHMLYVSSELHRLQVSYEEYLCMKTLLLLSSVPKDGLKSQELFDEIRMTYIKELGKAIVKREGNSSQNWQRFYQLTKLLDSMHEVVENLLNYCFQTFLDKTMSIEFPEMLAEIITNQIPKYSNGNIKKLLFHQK

full length COASTER (amino acids 1-1013), expressed from pCDNA3.1HISC.COASTER (from UniProt Q9Y4E5 1-1013)
luciferase activity, pMMTV-LUC in U-2 OS cells, 10^-8 M Dexamethasone (luciferase activity) [1]: 35200 | luciferase activity, pMMTV-LUC in U-2 OS cells, no hormone (luciferase activity) [1]: 103 | luciferase activity, p4ERE-TATA-LUC in U-2 OS cells, 10^-8 M 17β-estradiol (luciferase activity) [2]: 8200 | luciferase activity, p4ERE-TATA-LUC in U-2 OS cells, 10^-8 M ICI 164,384 (luciferase activity) [2]: 101 | luciferase activity, p4ERE-TATA-LUC in U-2 OS cells, no hormone (luciferase activity) [2]: 133 | luciferase activity, pMMTV-LUC in U-2 OS cells, 10^-8 M Org 2058 (luciferase activity) [3]: 3230 | luciferase activity, pMMTV-LUC in U-2 OS cells, no hormone (luciferase activity) [3]: 81

O=C(c1ccc(OCCN2CCCCC2)cc1)c1c(-c2ccc(O)cc2)sc2cc(O)ccc12 [raloxifen]
signalling via the ERα/β chimera (ERα/β chimera): able to signal

CC[C@@H]1C[C@H]2[C@@H]3CCC4=CC(=O)CC[C@@H]4[C@H]3CC[C@]2(C)[C@H]1C(=O)CO [Org 2058, 16α-ethyl-21-hydroxy-19-norpregn-4-ene-3,20-dione]
luciferase activity ([4]; pKCRE.PR + pMMTV-LUC + COASTER): 3229 ± 683 | luciferase activity ([4]; pKCRE.PR + pMMTV-LUC, no COASTER): 822 ± 112

C[C@]12CC[C@@H]3c4ccc(O)cc4CC[C@H]3[C@@H]1CC[C@@H]2O [17β-estradiol]
luciferase activity (ERβ; pNGV1.ERβ + p4ERE-TATA-LUC + COASTER): 8200 ± 819 | luciferase activity (ERβ; pNGV1.ERβ + p4ERE-TATA-LUC, no COASTER): 500 ± 109 | β-galactosidase reporter activity (ERβ-COASTER interaction, FIG. 3) (ERβ and COASTER): dose-dependent induction | signalling via the ERα/β chimera (ERα/β chimera): able to signal

— patent publication US7354728B2, “Coactivation of nuclear receptors” (N.V. Organon, priority 2000, dated 2008)
